Target: P116 (residues 30–957), recombinant ectodomain of Mycoplasma pneumoniae P116 (Mycoplasma pneumoniae, UniProt P75556)
Assay: cryo-EM structure

Chain of P116 (residues 30–957), recombinant ectodomain of Mycoplasma pneumoniae P116 (P75556 30-957): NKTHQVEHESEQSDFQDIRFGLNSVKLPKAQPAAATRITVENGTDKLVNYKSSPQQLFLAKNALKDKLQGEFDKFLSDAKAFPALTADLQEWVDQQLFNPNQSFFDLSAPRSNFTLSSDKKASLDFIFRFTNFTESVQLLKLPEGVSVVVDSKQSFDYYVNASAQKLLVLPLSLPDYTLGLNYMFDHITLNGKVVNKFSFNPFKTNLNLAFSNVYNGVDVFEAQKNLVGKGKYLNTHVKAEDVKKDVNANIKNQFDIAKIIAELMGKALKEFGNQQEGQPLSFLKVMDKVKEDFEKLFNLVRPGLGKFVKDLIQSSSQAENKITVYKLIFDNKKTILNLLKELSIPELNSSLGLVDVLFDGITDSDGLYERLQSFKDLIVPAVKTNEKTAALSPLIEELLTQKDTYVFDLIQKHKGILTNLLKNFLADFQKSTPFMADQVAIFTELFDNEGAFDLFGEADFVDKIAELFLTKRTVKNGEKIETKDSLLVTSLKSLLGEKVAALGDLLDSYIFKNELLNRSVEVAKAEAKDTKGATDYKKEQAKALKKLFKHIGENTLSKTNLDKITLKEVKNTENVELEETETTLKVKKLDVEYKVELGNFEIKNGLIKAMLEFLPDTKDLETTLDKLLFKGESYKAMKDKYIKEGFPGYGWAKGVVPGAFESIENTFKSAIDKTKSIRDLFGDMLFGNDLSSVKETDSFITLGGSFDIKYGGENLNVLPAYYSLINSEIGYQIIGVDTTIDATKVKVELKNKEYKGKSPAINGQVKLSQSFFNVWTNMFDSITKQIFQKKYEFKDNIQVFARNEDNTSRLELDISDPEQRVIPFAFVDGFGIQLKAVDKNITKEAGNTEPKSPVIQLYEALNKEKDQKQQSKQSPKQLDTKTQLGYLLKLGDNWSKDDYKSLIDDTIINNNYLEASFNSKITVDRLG

B1: monoclonal antibody (mAb) 3G9 against P116 (antibody, V domains shown)
VH: QVQLQQPGAELVKPGASVKLSCKASGYSFITYWMRWVRQRPGQGLEWIGQINPSNGHTNYDEKFKDRATLTVDKSSTTAYLQLSSLTSDDSAVYFCARSWEAMDYWGQGTSVTVSS
VL: DIVLTQSPATLSVTPGDSVSLSCRASQGISNNLHWYQQKSHESPRLLIKYASQSFSGIPSRFSGSGSGTVFTLTINSVETEDFGVYFCQQSYSWPIFTFGSGTNLQIK
B1: binds.
